The target of this assay is Aggrecan. Briefly: competition ELISA (CAP) on Aggrecan; competitor not stated.

B1: C010100626 (bispecific antibody, part only; not given: albumin binder and linker, not shown: small tags and cut ends)
chain, part: EVQLVESGGGLVQPGGSLRLSCAASGSTFIINVVRWYRRAPGKQRELVATISSGGNANYVDSVRGRFTISRDNSKNTVYLQMNSLRPEDTAVYYCNVPTTHYGGVYYGPYWGQGTLVTVSSEVQLVESGGGLVQPGGSLRLSCAASGSTFIINVVRWYRRAPGKQRELVATISSGGNANYVDSVRGRFTISRDNSKNTVYLQMNSLRPEDTAVYYCNVPTTHYGGVYYGPYWGQGTLVTVSS
A word on the IC50: it is the concentration needed to halve the response being measured. A high value points to weaker potency in that assay. Consider B1, for which the half-maximal inhibitory concentration (IC50) was 0.87 nM.
